Patent US7932362B2, “Antibodies to NRIF3 proteins” (New York University, priority 1999, dated 2011)

T1: cTRα (Gallus gallus, UniProt P04625)
T1 sequence (P04625 1-408): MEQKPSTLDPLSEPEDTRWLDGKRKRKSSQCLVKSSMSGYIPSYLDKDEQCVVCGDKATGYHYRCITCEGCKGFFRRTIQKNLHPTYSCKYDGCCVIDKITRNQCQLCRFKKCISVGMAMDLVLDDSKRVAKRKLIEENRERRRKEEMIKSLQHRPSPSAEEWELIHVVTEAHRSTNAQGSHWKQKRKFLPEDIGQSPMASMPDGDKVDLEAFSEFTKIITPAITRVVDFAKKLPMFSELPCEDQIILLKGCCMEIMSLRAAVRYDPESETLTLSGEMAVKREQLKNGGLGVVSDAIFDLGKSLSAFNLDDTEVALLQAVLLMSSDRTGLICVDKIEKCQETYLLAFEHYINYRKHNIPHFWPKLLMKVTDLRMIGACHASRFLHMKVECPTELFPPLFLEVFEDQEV


How the values were obtained:
endogenous RAR(s) = assay: Transfection study, CAT reporter in HeLa cells, endogenous RAR(s); assay type: cell-based, human; settings: 1 μM, HeLa cells without receptor expression vector, FIG. 6A
From the text: (§1) Transfection studies. Most reporters used in this study have been described previously, including IR-ΔMTV-CAT, DR4-ΔMTV-CAT, GH-TRE-tk-CAT, IR+3 (ERE)-ΔMTV-CAT (5, 25, 78). A DR1-ΔMTV-CAT reporter responsive to RXR was obtained from Ron Evans. A GRE/PRE-tk-CAT reporter was obtained from Gunther Schutz. The (IR)2-TATA-CAT was constructed in our laboratory by cloning two copies of the IR sequence (AGGTCA TGACCT) upstream of a TATA element derived from the tk promoter. A hVDR expression vector and the VDRE-ΔMTV-CAT containing the VDRE from the osteocalcin promoter were obtained from J. Wesley Pike. Vectors expressing cTRα, hRARα, hRXRα, rGR, hPR, and hER have been described previously (17, 25, 26, 50, 53, 81). The NRIF3 expression vector was constructed by cloning full length NRIF3 into a pExpress vector (25). Appropriate plasmids were transfected into HeLa cells by calcium phosphate co-precipitation using 25-100 ng of the receptors, 250-500 ng of the CAT reporters, and 750 ng of the NRIF3 or control pExpress vector. After transfection, cells were incubated at 37° C. (with or without cognate ligands) for 42 hours before being harvested. […] Relative CAT activity was determined as the percent acetylation of substrate per 30 μg of cell protein in a 15 hour incubation at 37° C. The results were calculated from duplicate or quadruplicate samples and the variation among samples was less than 10%.

cTRα = target: T1, cTRα; assay: Transfection study, CAT reporter in HeLa cells, TR-mediated transactivation; assay type: cell-based, chicken; settings: IR-ΔMTV-CAT reporter, 1 μM T3, FIG. 5A
From the text: as §1

B42-RAR LBD = assay: Yeast two-hybrid assay, LexA-NCD bait with prey B42-RAR LBD; assay type: cell-based, human; settings: cognate ligand, FIG. 11
Method: The following receptor baits were used: LexA-cTRα LBD, LexA-hTRβ LBD, LexA-hRARα LBD, LexA-hRXRα LBD, and LexA-hGR LBD. The NRIF3 C-terminal domain (NCD) was fused in frame with the LexA DBD and examined for interaction with receptor LBDs using the following preys: B42-cTRα LBD, B42-hRARα LBD, and B42-hRXRα LBD expressed from pJG4-5. Yeast cells harboring appropriate plasmids were grown in selective media with Gal/Raf in the presence or absence of cognate ligand (1 μM T3 for TR, all trans or 9-cis RA for RAR, 9-cis RA for RXR, and 10 μM deoxycorticosterone for GR) overnight before β-galactosidase activity was assayed using o-Nitrophenyl β-D-Galactopyranoside as the substrate. β-galactosidase units are expressed as (O.D. 420 nm×1000)/(minutes of incubation×O.D. 600 nm of yeast suspension).
To construct the bait plasmid expressing LexA-NCD, a derivative of pEG202 (which contains a new polylinker) plasmid was digested with NcoI and XhoI and ligated to synthetic oligonucleotides that encode the last 16 amino acids of NRIF3 (residues 162-177). Similarly, mutant NCD was generated by using oligonucleotides that contain the designed mutations in the ligation reaction. All constructs were confirmed by sequence analysis. […]

[1] = system: receptor-mediated transcription; assay: Transfection studies with endonexins (data not shown); assay type: cell-based
From the text: as §1

LexA-TR = LexA-TR (Gallus gallus, UniProt P04625); settings: yeast two-hybrid, 1 μM T3, FIG. 8B
LexA-RXR = LexA-RXR (Homo sapiens, UniProt P19793); settings: yeast two-hybrid, 1 μM 9-cis RA, FIG. 8B
LexA-RXR, sequence (P19793 227-462): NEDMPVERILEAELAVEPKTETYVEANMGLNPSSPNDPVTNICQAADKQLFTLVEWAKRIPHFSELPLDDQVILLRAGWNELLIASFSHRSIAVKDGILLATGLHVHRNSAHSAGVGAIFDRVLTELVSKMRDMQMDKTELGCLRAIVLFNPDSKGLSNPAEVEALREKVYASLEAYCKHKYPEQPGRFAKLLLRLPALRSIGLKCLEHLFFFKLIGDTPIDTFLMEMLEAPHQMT

B42-RAR LBD, sequence (P10276 183-417 limits assumed): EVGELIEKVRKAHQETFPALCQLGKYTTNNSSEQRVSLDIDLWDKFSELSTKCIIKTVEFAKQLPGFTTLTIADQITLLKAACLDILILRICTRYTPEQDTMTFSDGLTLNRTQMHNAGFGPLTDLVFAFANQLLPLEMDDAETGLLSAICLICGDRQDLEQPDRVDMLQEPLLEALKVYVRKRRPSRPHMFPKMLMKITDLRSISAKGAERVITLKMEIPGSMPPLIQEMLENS

Row | Molecule | effect on receptor-mediated transcription [1] | interaction with liganded TR (LexA-TR) | interaction with liganded RXR (LexA-RXR) | further results
1 | C/C(=C\c1ccc(C(=O)O)cc1)c1ccc2c(c1)C(C)(C)CCC2(C)C [TTNPB] | – | – | – | activation of the IR-ΔMTV-CAT reporter by ligand (endogenous RAR(s)): activates
2 | CBP: reported co-activator for nuclear receptors, used as a control | – | – | – | enhancement of TR-mediated activation of the CAT reporter (cTRα): around 3 fold
3 | NCD: C-terminal domain of NRIF3, amino acids 162-177; docked as 17-residue peptide KASRHLDSYEFLKAILN (SEQ ID NO:7) (C-terminal peptide of NRIF3) | – | – | – | interaction with the LBD of RAR (B42-RAR LBD): interact efficiently
4 | EnL: β3-endonexin long form, 170 amino acids, alternatively spliced product of the same gene as NRIF3 (protein) MPVKRSLKLDGLLEENSFDPSKITRKKSVITYSPTTGTCQMSLFASPTSSEEQKHRNGLSNEKRKKLNHPSLTESKESTTKDNDEFMMLLSKVEKLSEEIMEIMQNLSSIQALEGSRELENLIGISCASHFLKREMQKTKELMTKVNKQKLFEKSTGLPHKGQPQMSPQL | little effect | completely abolished | completely abolished | –
5 | EnS: β3-endonexin short form, 111 amino acids, identical to the first 111 residues of NRIF3 (protein) MPVKRSLKLDGLLEENSFDPSKITRKKSVITYSPTTGTCQMSLFASPTSSEEQKHRNGLSNEKRKKLNHPSLTESKESTTKDNDEFMMLLSKVEKLSEEIMEIMQNLSSIQ | little effect | completely abolished | completely abolished | –
